The text below walks through data of patent US20140170168A1 (published 2014).

The chains are these.
T1: RTL342m (two-domain β1α1 HLA-DR2 with mouse MOG-35-55 peptide) (mouse)
T1 construct: Differs from RTL1000 by the Pro to Ser change at position 42 of MOG; also called DR2/mMOG-35-55; β1α1DR2/mMOG-35-55
T1 chain: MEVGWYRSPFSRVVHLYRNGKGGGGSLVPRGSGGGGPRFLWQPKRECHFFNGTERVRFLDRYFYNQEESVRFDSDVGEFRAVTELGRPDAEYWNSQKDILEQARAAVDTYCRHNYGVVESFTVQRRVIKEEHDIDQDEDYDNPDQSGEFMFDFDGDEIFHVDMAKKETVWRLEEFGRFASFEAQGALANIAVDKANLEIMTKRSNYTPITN

T2: RTL340 (two-domain β1α1 HLA-DR2 with covalently linked MBP-85-99 peptide) (human)
T2 construct: also called RTL340-BirA; DR2/MBP-85-99
T2 chain: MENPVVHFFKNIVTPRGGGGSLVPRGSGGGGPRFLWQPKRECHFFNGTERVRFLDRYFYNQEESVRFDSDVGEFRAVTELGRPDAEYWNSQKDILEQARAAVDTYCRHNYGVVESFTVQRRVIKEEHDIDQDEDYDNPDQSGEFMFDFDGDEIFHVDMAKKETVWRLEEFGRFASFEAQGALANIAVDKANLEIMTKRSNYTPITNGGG

T3: RTL302 (empty two-domain HLA-DR2 RTL) (human)
T3 construct: Two-domain MHC class II without antigenic peptide; also called empty DR2; DR2 (empty)
T3 chain: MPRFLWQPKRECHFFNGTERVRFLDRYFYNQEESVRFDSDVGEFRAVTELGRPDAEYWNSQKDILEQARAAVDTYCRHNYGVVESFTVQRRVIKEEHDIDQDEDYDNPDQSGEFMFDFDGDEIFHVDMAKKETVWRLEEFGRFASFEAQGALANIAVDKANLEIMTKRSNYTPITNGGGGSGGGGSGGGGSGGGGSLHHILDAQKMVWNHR

T4: RTL302 (empty DR2 RTL) loaded with free MOG-35-55 peptide (human)
T4 construct: also called empty β1α1DR2-RTL loaded with MOG-35-55 peptide; MOG-35-55 loaded empty RTL302
T4 chain: T3 chain
T4 peptide: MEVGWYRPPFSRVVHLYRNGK

T5: RTL2010 (two-domain β1α1 HLA-DR4 with covalently linked GAD-555-567 peptide) (human)
T5 construct: also called RTL2010-BirA
T5 chain: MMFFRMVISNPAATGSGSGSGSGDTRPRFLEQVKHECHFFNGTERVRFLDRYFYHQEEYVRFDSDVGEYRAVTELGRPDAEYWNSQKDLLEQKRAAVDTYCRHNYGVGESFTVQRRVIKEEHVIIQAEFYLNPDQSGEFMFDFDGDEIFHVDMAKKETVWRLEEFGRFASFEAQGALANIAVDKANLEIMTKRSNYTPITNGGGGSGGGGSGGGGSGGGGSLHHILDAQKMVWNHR

T6: RTL600 (empty two-domain HLA-DP2 RTL) (human)
T6 construct: also called DP2 (empty)
T6 chain: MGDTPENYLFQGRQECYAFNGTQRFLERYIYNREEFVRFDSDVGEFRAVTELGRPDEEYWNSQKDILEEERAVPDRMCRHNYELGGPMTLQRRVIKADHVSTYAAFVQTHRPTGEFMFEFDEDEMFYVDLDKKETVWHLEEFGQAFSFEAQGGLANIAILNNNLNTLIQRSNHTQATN

B1: Fab 2E4 (Fab, V domains shown)
VH: EVQLVESGAEVKKPGASVKVSCKASGYTFTSYYMHWVRQAPGQGLEWMGIINPSGGSTSYAQKFQGRVTMTRDTSTSTVYMELSSLRSEDTAVYYCAREGDNYYGDAFDIWGQGTMVTVSS
VL: EIVLTQSPATLSLSPGERATLSCRASQSVSSYLAWYQQKPGQAPRLLIYDASNRATGIPARFSGSGSGTDFTLTISSLEPEDFAVYYCQQRSNWPPSYTFGQGTKLEIKR
notes: also called 2E4 Fab; anti-RTL1000 TCRL Fab
B2: RTL1000 (two-domain β1α1 HLA-DR2 with covalently linked human MOG-35-55 peptide) (peptide-MHC)
chain: MEVGWYRPPFSRVVHLYRNGKGGGGSLVPRGSGGGGPRFLWQPKRECHFFNGTERVRFLDRYFYNQEESVRFDSDVGEFRAVTELGRPDAEYWNSQKDILEQARAAVDTYCRHNYGVVESFTVQRRVIKEEHDIDQDEDYDNPDQSGEFMFDFDGDEIFHVDMAKKETVWRLEEFGRFASFEAQGALANIAVDKANLEIMTKRSNYTPITNGGGGSGGGGSGGGGSGGGGSLHHILDAQKMVWNHR
notes: also called RTL1000-BirA; DR2/MOG-35-55
B3: Fab 3A3 (Fab, V domains shown)
VH: QVQLQESGGGLVKPGGSLRLSCAASGFTFSSYSMNWVRQAPGKGLEWVSSISSSSSYIYYADSVKGRFTISRDNAKNSLYLQMNSLRAEDTAVYYCARVRGHRYYYDSSGYYSSDYYYYYGMDVWGQGTTVTVSS
VL: DIQLTQSPSSVSASVGDRVTITCRASQVISSWLAWYQQKPGKAPKLLISTASSLQSGVPPRFSGSGSGTDFTLTITSLQPEDFATYYCQQANSFPLTFGQGTKVEIKR
notes: also called 3A3 Fab
B4: Fab 1B11 (Fab, V domains shown)
VH: EVQLVQSGAEVKKPGASVRVSCKASGYTFTSYGISWVRQAPGQGLEWMGWISAYNGNTNYAQKLQGRVTMTTDTSTSTAYMELRSLRSDDTAVYYCARDIRAYGSGSYSRYYYYGMDVWGQGTTVTVSS
VL: EIVLTQSPATLSVSPGERATLSCRASQNIGSILAWYQHKPGQAPRLLIYGASTRATGIPARFSGSGSGTEFTLTISSLQSDDFAVYYCQQYLYWPFTFGGGTKVEIKR
notes: also called 1B11 Fab
B5: Fab 1F11 (Fab, V domains shown)
VH: QLQLQESGPGLVKPSETLSLTCTVSGVSISSRSGHWGWVRQPPGKGLEWIGSISYSGSTYYNPSLKSRVTISVDTSKNQLSLKLSSVTAADTAVYYCARESHPAAALVGWGQGTLVTVSS
VL: ETTLTQSPGTLSLSPGERATLSCRASQSIINSHLAWYQQKPGQAPRLLIYGASSRATGIPDRFSGGGSGTDFTLTITRLETEDFALYFCQQYGTSPLTFGGGTRVETKR
notes: also called 1F11 Fab
B6: Fab 3H5 (Fab, V domains shown)
VH: QVQLQESGPGLVKPSETLSLTCTVSGGSISGYYWSWIRQPPGKGLEWIGYIYYSGSTNYNPSLKSRVSISVDTSKNQFSLRLSSVTAADSAVYFCARDERDAYYYGMDVWGQGTTVTVSS
VL: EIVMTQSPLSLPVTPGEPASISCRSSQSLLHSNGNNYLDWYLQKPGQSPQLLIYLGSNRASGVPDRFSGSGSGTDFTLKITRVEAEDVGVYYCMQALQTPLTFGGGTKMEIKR
notes: also called 3H5 Fab
B7: Fab D2 (Fab, V domains shown)
VH: EVQLVQSGAEVKKPGSSVKVSCKASGGTFSSYAISWVRQAPGQGLEWMGIINPSGGSTSYAQKFQGRVTITADKSTSTAYMELSSLRSEDTAVYYCARGGPTGIFDYWGQGTLVTVSS
VL: EIVLTQSPATLSLSPGERATLSCRASQSVSSYLAWYQQKPGQAPRLLIYDASNRATGIPARFSGSGSGTDFTLTISSLEPEDFAVYYCQQRSNWPLTFGGGTKVEIKR
notes: the heavy chain entry holds VH, CH1, connector, His tag and Myc tag; also called D2 Fab
B8: Fab 2C3 (Fab, V domains shown)
VH: QVQLVQSGGGVVQPGRSLRLSCAASGFTFSSYAMHWVRQAPGKGLEWVAVISYDGSNKYYADSVKGRFTISRDNSKNTLYLQMNSLRAEDTAVYYCARDRSFWSGYYIINYYYYGMDVWGQGTTVTVSS
VL: DVVMTQSPLSLPVTPGEPASISCRSSQSLLHSDGNNYLDWYLQKPGQSPQLLIYLGSNRASGVPDRFSGSGSGTDFTLKISRVEPEDVGVYYCMQALHIPLTFGQGTRLEIKR
notes: also called 2C3 Fab

In experiment [1] the target is T1, RTL342m (two-domain β1α1 HLA-DR2 with …). As to the kind of experiment: ELISA, soluble Fab on immobilised RTL (FIG. 3A). (In general: An ELISA detects its analyte on a solid surface through an enzyme-linked reagent.)
Method: (§1) Binding specificity of individual phage clone supernatants and soluble Fab fragments were determined by ELISA using biotinylated two and four-domain MHC/peptide complexes. ELISA plates (Falcon) were coated overnight with BSA-biotin (1 μg/well). After being washed, the plates were incubated (1 hour at room temperature) with streptavidin (10 μg/ml), washed extensively and further incubated (1 hour at room temperature) with 5 μg/ml of MHC/peptide complexes. The plates were blocked for 30 minutes at room temperature with PBS/2% skim milk and subsequently were incubated for 1 hour at room temperature with phage clone supernatants (induced at OD₆₀₀=0.8-1.0 for overnight expression at 30° C.) or 5 μg/ml soluble purified Fab. After washing, plates were incubated with horseradish peroxidase-conjugated/anti-human-Fab antibody. Detection was performed using TMB reagent (Sigma). For binding of peptide-loaded RTLs, ELISA plates were coated 2 hours at 37° C. with purified Fab, washed extensively and blocked for 30 minutes with PBS/2% skim milk. […] After washing, plates were incubated with horseradish peroxidase-conjugated/anti-mouse-IgG antibody and detection was performed as described above.
The target in experiment [2] is T2, RTL340 (two-domain β1α1 HLA-DR2 with …). As to the kind of experiment: ELISA, soluble purified Fab on immobilised biotinylated complex or peptide.
Method: as §1
The target in experiment [3] is T3, RTL302 (empty two-domain HLA-DR2 RTL). The experiment is described as above.
Method: as §1
For experiment [4], the target named is B2. In words: SPR (ProteOn XPR36), Fab captured by immobilised anti-Fab, RTL1000 injected at 62.5-1000 nM.
Method: Six channels were activated with 50 μl of a mixture of 0.04 M N-ethyl-N-(3-dimethylaminopropyl) carbodiimide (EDC) and 0.01 M sulfo-N-hydroxysuccinimide (Sulfo-NHS) at a flow rate of 30 μl/min. The anti-Fab specific Fab was diluted in 10 mM sodium acetate buffer pH 4.5 to a final concentration of 25 μg/ml, and 150 μl were injected followed by an injection of 150 μl of 1 M ethanolamine-HCl pH 8.5. The immobilization levels were about 4,000 RU. Next, 150 μl of five different supernatants were injected in the vertical orientation in five different channels to allow their capture by the immobilized Fab anti Fab. The sixth channel remained empty to serve as a reference. […] Running buffer was injected simultaneously in the sixth channel for double referencing to correct for loss of the captured supernatant from the chip sensor surface during the experiment. All binding sensorgrams were collected, processed and analyzed using the integrated ProteOn XPR36 system Manager (Bio-Rad Laboratories, Hercules, USA) software. Binding curves were fitted using the Langmuir model describing 1:1 binding stoichiometry, or with the Langmuir and mass transfer limitation model. Each individually captured antibody interacting with the five concentrations of antigen was fitted using a global ka, kd and Rmax. Global fitting is used when the same ka, kd and Rmax values describe a specific biological model like five antigen concentrations interacting with a certain antibody.
The target in experiment [5] is T4, RTL302 (empty DR2 RTL) loaded with free …. As to the kind of experiment: sandwich ELISA: plate coated with purified Fab, loaded or empty RTL302 added, detection with mAb TU39.
Method: as §1
For the experiment “Fab 2E4”, the target named is B1. As to the kind of experiment: competition ELISA: soluble competitor varied, binding of purified Fab 2E4 to immobilised RTL1000 read.
For the experiment “Fab 2C3”, the target named is B8. In words: competition ELISA: soluble competitor varied, binding of purified Fab 2C3 to immobilised RTL1000 read.
Experiment [6] concerns the target T5, RTL2010 (two-domain β1α1 HLA-DR4 with …). In words: ELISA, purified Fab 1B11 on immobilised RTLs and four-domain complexes.
Method: as §1
Experiment [7] concerns the target T6, RTL600 (empty two-domain HLA-DP2 RTL). The description is as above.
Method: as §1
Experiment [8] addresses T5, RTL2010 (two-domain β1α1 HLA-DR4 with …). In words: ELISA on immobilised RTL and four-domain complex (FIG. 8C).
Method: as §1

For orientation: Kd means the constant that tells how readily two partners part at equilibrium. For B1, in experiment [1], the “fold reduction in binding to RTL342m compared to RTL1000” value (from here on “fold reduction in binding to RTL342m”) was 2 fold. Also, the binding result was “no binding (tested: 5 µg/ml Fab)” in [2], “no binding (tested: 5 µg/ml Fab)” in experiment [3] and “binds” in experiment [5]. For the same molecule, the equilibrium dissociation constant (Kd) in experiment [4] is 0.033 µM.
With B2, the binding result with Fab 2E4 and with Fab 2C3 was “binds” each time.
Regarding B3, the “fold reduction in binding to RTL342m” value in experiment [1] was 5 fold. For the same molecule, the binding result was “no binding (tested: 5 µg/ml Fab)” in [2], “no binding (tested: 5 µg/ml Fab)” in [3] and “binds” in [5]. The same molecule gave a Kd in experiment [4] of 0.058 µM.
On to B4, for which the binding result is “binds” in [6], “no binding (tested: 5 µg/ml Fab)” in experiment [7] and “binds” in [3].
Turning to B5, in experiment [1], the “fold reduction in binding to RTL342m” value was 5 fold. Further, the binding result in [2] is listed as “no binding (tested: 5 µg/ml Fab)”; in experiment [3] it was “no binding (tested: 5 µg/ml Fab)”; in experiment [5], “binds”. In addition, the Kd in experiment [4] is 0.06 µM.
B6: the binding result in experiment [2] was “no binding (tested: 5 µg/ml Fab)”; in experiment [3] it was “no binding (tested: 5 µg/ml Fab)”; in [5], “binds”. In addition, the Kd in [4] amounted to 0.129 µM.
On to B7, for which the binding result in experiment [8] was “binds”.
Regarding B8, the binding result is on record as “no binding (tested: 5 µg/ml Fab)” in [2], “no binding (tested: 5 µg/ml Fab)” in [3] and “binds” in [5]. Besides, the Kd in experiment [4] amounted to 0.153 µM.
